Measurements: patent US20210002376A1
Like-named read-outs stand apart in the source and are kept apart here.

How the values were obtained:
HER3-His = HER3-His (UniProt P21860); assay: ELISA, coated His-tagged HER3 ECD, anti-human Fc-HRP
HER3-Fc fusion protein [1] = target: HER3-Fc fusion protein (UniProt P21860); assay: ELISA, coated HER3-Fc, anti-human Fab-HRP
HER3-Fc fusion protein [2] = target: HER3-Fc fusion protein (UniProt P21860); assay: ELISA, coated HER3-Fc, anti-human Fab-HRP; remark: listed apart in the source

EC50 (HER3-His): 0.23 nM
EC50 (HER3-Fc fusion protein [1]): 0.2 nM
EC50 (HER3-Fc fusion protein [2]): 0.21 nM
B1: 3-43-IgG (antibody, from a related filing, V domains shown)
VH: QVQLQQSGPGLVKPSQTLSLTCAISGDSVSSNRAAWNWIRQSPSRGLEWLGRTYYRSKWYNDYAQSLKSRITINPDTPKNQFSLQLNSVTPEDTAVYYCARDGQLGLDALDIWGQGTMVTVSS
VL: QAGLTQPPAVSVAPGQTASITCGRDNIGSRSVHWYQQKPGQAPVLVVYDDSDRPAGIPERFSGSNYENTATLTISRVEAGDEADYYCQVWGITSDHVVFGGGTKLTVLC
